Here are results for eight molecules from US7910708 (Novartis, dated 2011).

The chains are these.
B1: 01951/G12 antibody (human IgG1, kappa) (antibody, V domains shown)
VH: EVQLVESGGGVVQPGRSLRLSCAASGFTFSSYGMHWVRQAPGKGLEWVAIIWYDGSNKYYADSVKGRFTISRDNSKNTLYLQMNSLRAEDTAVYYCARLWFGDLDAFDIWGQGTMVTVSS
VL: EIVLTQSPATLSLSPGERAILSCRAGQSVSSYLVWYQQKPGQAPRLLIYDASNRATGIPARFSGSGSGTDFTLTISSLEPEDFAVYYCQQRSSWPPVYTFGQGTKLEIKR
B2: 01471/G6 antibody (human IgG1, kappa) (antibody, V domains shown)
VH: EVQLVESGGGVVQPGRSLRLSCAASGFTFSNYGMHWVRQAPGKGLEWVAIIWYDGSNKYYADSVKGRFTISRDNSKNTLYLQMNSLRAEDTAVYYCVKGSGDIPFDYWGQGTLVT
VL: EIVLTQSPATLSSSPGERATLSCRASQSVSSYLAWYQQKPGQAPRLLIYDASNRATGIPARFSGSGSGTDFTLTISSLEPEDFAVYYCHQRSHWPPIFTFGPGT
B3: 01771/E10 antibody (human IgG1, kappa) (antibody, V domains shown)
VH: QVQLVQSGGGVVQPGRSLRLSCAASGFTFSSYGMHWVRQAPGKGLEWVAIIWYDGSNKYYADSVKGRFTISRDNSKNTLYLQMNSLRAEDTAVYYCARLWFGDLDAFDIWGQGTMVT
VL: EIVLTQSPATLSLSPGERATLSCRASQSVSSYLAWYQQKPGQAPRLLIYDASNRATGIPARFSGSGSGTDFTLTISSLEPEDFAVYYCHQRSSWPPIFTFGPGT
B4: 03161/H2 antibody (human IgG1, kappa) (antibody, V domains shown)
VH: EVQLVESGGGVVQPGRSLRLSCAASGFTFSNYGMHWVRQAPGKGLEWVAIIWYDGSNKYYADSVKGRFTISRDNSKNTLYLQMNSLRAEDTAVYYCVKGSGDIPFDYWGQGTLVT
VL: EIVLTQSPATLSSSPGERATLSCRASQSVSSYLAWYQQKPGQAPRLLIYDASNRATGTPARFSGSGSGTDFTLTISSLEPEDFAVYYCHQRSHWPPIFTFGPGT
B5: 01471/G6 Fab (Fab, V domains shown)
VH: EVQLVESGGGVVQPGRSLRLSCAASGFTFSNYGMHWVRQAPGKGLEWVAIIWYDGSNKYYADSVKGRFTISRDNSKNTLYLQMNSLRAEDTAVYYCVKGSGDIPFDYWGQGTLVT
VL: EIVLTQSPATLSSSPGERATLSCRASQSVSSYLAWYQQKPGQAPRLLIYDASNRATGIPARFSGSGSGTDFTLTISSLEPEDFAVYYCHQRSHWPPIFTFGPGT
notes: Soluble human Fab expressed in E. coli, kappa light chain (captured via anti-human L-kappa antibody); the printed variable regions stop short of the end of framework 4
B6: 01951/G12 Fab (Fab, V domains shown)
VH: EVQLVESGGGVVQPGRSLRLSCAASGFTFSSYGMHWVRQAPGKGLEWVAIIWYDGSNKYYADSVKGRFTISRDNSKNTLYLQMNSLRAEDTAVYYCARLWFGDLDAFDIWGQGTMVT
VL: EIVLTQSPATLSLSPGERAILSCRAGQSVSSYLVWYQQKPGQAPRLLIYDASNRATGIPARFSGSGSGTDFTLTISSLEPEDFAVYYCQQRSSWPPVYTFGQGT
notes: Soluble human Fab expressed in E. coli, kappa light chain
B7: 01771/E10 Fab (Fab, V domains shown)
VH: QVQLVQSGGGVVQPGRSLRLSCAASGFTFSSYGMHWVRQAPGKGLEWVAIIWYDGSNKYYADSVKGRFTISRDNSKNTLYLQMNSLRAEDTAVYYCARLWFGDLDAFDIWGQGTMVT
VL: EIVLTQSPATLSLSPGERATLSCRASQSVSSYLAWYQQKPGQAPRLLIYDASNRATGIPARFSGSGSGTDFTLTISSLEPEDFAVYYCHQRSSWPPIFTFGPGT
notes: as for B6
B8: 03161/H2 Fab (Fab, V domains shown)
VH: EVQLVESGGGVVQPGRSLRLSCAASGFTFSNYGMHWVRQAPGKGLEWVAIIWYDGSNKYYADSVKGRFTISRDNSKNTLYLQMNSLRAEDTAVYYCVKGSGDIPFDYWGQGTLVT
VL: EIVLTQSPATLSSSPGERATLSCRASQSVSSYLAWYQQKPGQAPRLLIYDASNRATGTPARFSGSGSGTDFTLTISSLEPEDFAVYYCHQRSHWPPIFTFGPGT
notes: as for B6

T1 sequence (P35225 35-146 limits assumed): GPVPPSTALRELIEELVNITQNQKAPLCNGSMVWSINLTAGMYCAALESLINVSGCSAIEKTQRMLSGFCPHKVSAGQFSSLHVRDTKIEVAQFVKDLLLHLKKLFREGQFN

One experiment concerns the target T1, recombinant human IL-13 (human, UniProt P35225 35-146, limits assumed). As to the kind of experiment: cell-based or functional assay.
For the molecule B1, the “EC50 [nM] human IL-13 (IL-13-induced eotaxin release from human lung fibroblasts)” value turned out to be 0.33 nM. Still for that read-out and setting: the same measure for B2: 1.23 nM; for B3: 1.71 nM.

B4: the “EC50 [nM] human IL-13 (IL-13-induced eotaxin release from human lung fibroblasts)” value amounted to 0.95 nM.

For a further experiment, the target named is T1, recombinant human IL-13. As to the kind of experiment: SPR, BIAcore 2000; Fab captured via anti-human L-kappa antibody, hrIL-13 injected; 1:1 Langmuir model. On the procedure:
Quantitative Analysis of Binding Affinities: Determination of Anti-Human IL-13 Fab Candidates Surface plasmon resonance measurements quantifying the interaction of anti-IL-13 Fabs with several hrIL-13 are performed using the optical biosensor, BIAcore 2000. Specific binding of IL-13 to a respective IL-13 Fab immobilized on a BIAcore chip can be measured by following accumulation of the ligand on the receptor. The microscopic association ($kon$) and dissociation rates ($koff$) can be obtained directly from the mass accumulation rates on the chip and are expressed in response units (RUs). Anti-IL-13 Fab is immobilized on the chip surface via a secondary anti-human Lκ antibody (Jackson Immunochemicals). This capture antibody was covalently bound using the 'Amine coupling kit' (BIAcore, Cat. No. BR-1000-50) as recommended in the manufacturers' protocols. 250 μl of varying concentrations of hrIL-13 was injected at flow rate of 20 μl/min and the kinetic trace was recorded. The chip surface was regenerated by two acid wash steps using 100 mM HCl and injecting 10 μl with a flow rate of 20 μl/min. This treatment leads to dissociation of the Fab IL-13 complex due to reversible acid denaturation. No significant loss of binding activity was observed when the antibody was reinjected for a subsequent run. The kinetic traces were evaluated with the BIAcore software applying the 1:1 Langmuir association model The summarized affinity data on human IL-13 is shown in Table 1 herein.
Consider B5, for which the dissociation constant Kd stood at 0.1 nM. Still for that read-out and setting: the same measure for B6: 0.48 nM; for B7: 0.343 nM. On the same count and under the same terms, the same measure for B8: 0.197 nM.
